Source: paper PMC8551123, “Pentose degradation in archaea: Halorhabdus species degrade D-xylose, L-arabinose and D-ribose via bacterial-type pathways” (Extremophiles, 2020)
Each block holds one molecule with its values, some of them ahead of it.

How the values were obtained:
[1] = target: Ribose-5-phosphate isomerase of Halorhabdus utahensis (Huta_0832) (Halorhabdus utahensis); assay: SEC; Superdex 200 HiLoad column (1.6 by 60 cm), flow rate 1 ml/min, calibrated with the HMW and LMW kits; oligomeric state from the native mass and the calculated subunit mass
[2] = target: Ribokinase of Halorhabdus tiamatea (HTIA_0439) (Halorhabdus tiamatea); assay: as above
[3] = substrate: O=C(CO)[C@@H](O)[C@H](O)CO; assay: coupled pyruvate kinase/lactate dehydrogenase assay (NADH); format: biochemical, Halorhabdus utahensis; details: ATP co-substrate (12.5 mM standard), 37 °C, pH 8.0, 2 M KCl, 10 mM MgCl2
[4] = substrate: Nc1ncnc2c1ncn2[C@@H]1O[C@H](COP(=O)(O)OP(=O)(O)OP(=O)(O)O)[C@@H](O)[C@H]1O; assay: as above; format: biochemical, Halorhabdus utahensis; details: 37 °C
[5] = target: the molecule itself; assay: SEC; Superdex 200 HiLoad column (1.6 by 60 cm), flow rate 1 ml/min, calibrated with the HMW and LMW kits; oligomeric state from the native mass and the calculated subunit mass
[6] = substrate: Nc1ncnc2c1ncn2[C@@H]1O[C@H](COP(=O)(O)OP(=O)(O)OP(=O)(O)O)[C@@H](O)[C@H]1O; assay: coupled pyruvate kinase/lactate dehydrogenase assay (NADH); format: biochemical, Halorhabdus tiamatea; details: D-ribose co-substrate (5 mM standard), 42 °C, pH 7.5 bis-tris, 1.5 M KCl, 10 mM MgCl2
[7] = substrate: O=C(CO)[C@@H](O)[C@@H](O)CO; assay: as above; format: biochemical, Halorhabdus utahensis; details: ATP co-substrate (10 mM standard), 37 °C, pH 8.0, 1.5 M KCl, 50 mM MgCl2

- stoichiometry N [1]: 4
Molecule: Ribose-5-phosphate isomerase of Halorhabdus utahensis (Huta_0832) (enzyme)

- stoichiometry N [2]: 2
Molecule: Ribokinase of Halorhabdus tiamatea (HTIA_0439) (enzyme)

B1: Xylulokinase of Halorhabdus utahensis (Huta_2446) (enzyme, UniProt C7NMH3 1-515, looked up)
chain: MGLDLGTSGVKTLVADADGEVLATNTEEYPLYQPEVGWSEQDPADWWAATLDGIEAVLEDPAVDPEDVEALGLTGQMHGSVFLDGEGEVLRPAILWNDTRTSAQCDEIEERVGEDRIIELASNPPFEGFTAPKILWVQEHEPEVYDQTESILLPKDFIRYKLTEAFATDVSDASGTLLLDVGERDWSPEILDELDISRDLLPEVYESPEVTGAVTDAVAERTGLPAGTPVVAGAGDNAAGAVGSGVVGDGDVWGSIGTSGVIFVATDDERTDPEGRVHTFCHAVPDTWHVMGVMLSAGGAFSWFSETLGGPEEVVADQLGKDAFEVLTDEAATVDPGSEGLIFLPYLNGERTPHRDADARGAFFGLSTRHDKSHVVRSVLEGVTYGLRDSFRIVRDDLGVDTGQLKAAGGGAKSPLWKQIQADIFDAEILTPNVDEGPAYGSALLAGVGADVYDNVADATEQAVDIVDSVEPIDQHTRVYDEYYEIYESLYPALEDSFAANSAAIESAQDILDEA
notes: xylulokinase, Halorhabdus utahensis, gene Huta_2446 (1548 nucleotides); calculated subunit mass 55.1 kDa; Gene amplified from genomic DNA and cloned into pTA963; source: Haloferax volcanii H1209, purified (Ni-NTA, size-exclusion chromatography, Phenyl-Sepharose)
- Km [3]: 310 µM
- Km ([4]; D-xylulose co-substrate (10 mM standard), pH 8.0, 2 M KCl, 10 mM MgCl2): 5680 µM
- stoichiometry N [5]: 2

B2: Xylose isomerase of Halorhabdus utahensis (Huta_2443) (enzyme, UniProt C7NMH0 1-438, looked up)
chain: MSEYFPEIDEITYEGPDSQDPLSFSYYDPEKQVGEKTMAEHLRFSVAYWHTLREDGSDPFGAGTMQRPWDDIDDPMEKAHARVDAAFEFFEKLGVPYFCFHDRDIAPKGEDLAESNENLDEIVDHVEEKIDETGVELLWGTAQLFMEPKFAHGAATSPNPDVFAHAAGQVKKAMEVTERLGGENFVFWGGREGYKTLLNSDMGRELDNMGRFFRMAADYADDIGFDGQLLIEPKPKEPTKHQYDFDAANVMAFLREYGLEDRFNLNLEANHATLAGHTFRHELQYARVNDALGSVDANQGDKLIGWDTDEFPTDVYMTTLAMYEVLENDGIAPGGLNFDAKVRRESFEPVDLFYGHVVGMDTFARGLEVAHELREDGVFADVIDDRYGYDAGIGAEIAAESTDFEALAEYALENDGIELESGRQEKLKAVLNSYILES
notes: xylose isomerase, Halorhabdus utahensis, gene Huta_2443 (1317 nucleotides); calculated subunit mass 49.3 kDa; Gene amplified from genomic DNA and cloned into pTA963; Elution from Ni-NTA implies a His tag; also called class II xylose isomerase; source: Haloferax volcanii H1209, purified (Ni-NTA, size-exclusion chromatography)
- stoichiometry N [5]: 4

B3: ribokinase (HTIA_0439) (Halorhabdus tiamatea SARL4B) (protein)
chain: MGNVYVAGSINQDIAVRLERRPQPGETVPGESASFGLGGKGANQAIAAARSGAAVELIGAVGDDRFGEELLADLDTEDGLSTAGVHRASNTSTGVALITVDADSENAIVAVPGANAALAPADVGDVGMEDDAVVLSQFEIPQPTIRTFFEQAHAQGARTVLNPAPAETVREDLLERVDFLVVNETEALFYADGDSKGQLSQDELVETAAALRTHDEQVVVVTLGEAGVFASTPSETIELDAYAVDPVDTTGAGDAFVGAFATALGDGLRLRDALDVGAAAGALATTQTGAAPSLPTRAAIEDLRADE
notes: full length, overexpressed, recombinant (Haloferax volcanii H1209, pTA963, His tag by general methods)
- Km [6]: 100 µM

B4: Arabinose isomerase of Halorhabdus utahensis (Huta_1154) (enzyme, UniProt C7NML7 1-495, looked up)
chain: MSPIPHGTDFDDLEVWFLTGSQHLYGEETLDLVAEDAREVAAGLDDDDRIPVSVEFKSVLTTADAIESVVREANASEDCIGLITWMHTFSPAKMWIRGLQALDVPFVHLHTQFNRELPYDEIDMDFMNANQSAHGGREFGHIVSRLDIDRKVVVGHWEDDDVREQLDTWARAAAARHELRGAKIARFGDNMRDVAVTEGDKVSAQMAFGASVDGYGLGDLVEFVEDVTESEIDDLLEEYDQQYELAAELQADGDRRDSLREAARIELGIRAFLEDGEFVGFTTTFENLTGLSQLPGLAVQRLMADGYGFGPEGDWKSALLTRAMKVMGQGLNGGTSLMEHYTYDLTEGDEKVLGAHMLEICESIAGEQPRLEIHPLDIGGKADPVRAVFDADTGPAINASLVDMGDRFRLITNDVESVGPDEPLPELPVARAVWKPEPDFETAIEAWIKAGGAHHTGYSQAVTNEHLEDFASMTGIEHLHVGADTDIADVERKLS
notes: arabinose isomerase, Halorhabdus utahensis, gene Huta_1154 (1488 nucleotides); calculated subunit mass 55.4 kDa; Gene amplified from genomic DNA and cloned into pTA963; source: Haloferax volcanii H1209, purified (Ni-NTA, size-exclusion chromatography)
- stoichiometry N [5]: 6

B5: Ribulokinase of Halorhabdus utahensis (Huta_1150) (enzyme, UniProt C7NMB8 1-512, looked up)
chain: MDGQYLVGTDIGTNSTKTILVSPEGEVLGTGNAGYEVEQPEPSWAQQWPDVWVEATYDSIQQAIDEAEVDPSEIRGISISSLYGGAGVPLDSEGEPVYPCLIWMDRRATDQVEWVKENVDLDRLFEITGNYVDSYYGYTKIRWIKEHEPEVWDDIENFVPPNNYVEYVMTDELAVDYSSAGNVGGVFDIHDLAWSEEACEMLEIPIEKFPERLVPTEEIVGEVTADAAEASGLPEGTPVLAGGVDAPMATLAAGAFEEGDNVSMMGTSTCWGTIHEGAGLDQQLVSMPHVAEGEEKIYTWGGSATTGGLIEWFKDEFGGPEEQAGELVDVDPFELLNMKAEEIPAGSEGLVALPYFKGERSPIWDPDARGMFTGLSLYHGKSHMYRALMEAGGYSLRHNVEVAEEIGIPLNDETSVVGGVSNSELWMQILADVTGRRMEVPAGGVGAPLGDALVVGVGTGLFEDYDVATEWTETGEVYTPEPENVDTYDEYYDIYKRLYQNTKDEMHDLAQL
notes: ribulokinase, Halorhabdus utahensis, gene Huta_1150 (1539 nucleotides); calculated subunit mass 56.1 kDa; Gene amplified from genomic DNA and cloned into pTA963; also called L-ribulokinase; source: Haloferax volcanii H1209, purified (Ni-NTA, size-exclusion chromatography)
- Km ([4]; L-ribulose co-substrate (1 mM standard), pH 8.0, 1.5 M KCl, 50 mM MgCl2): 4200 µM
- Km [7]: 550 µM
- stoichiometry N [5]: 6
